The values below come from US20230382979A1 (ADAPTIVE BIOTECHNOLOGIES, published 2023).

Positions count from the first letter of the chain named. Read-outs that look alike come from different tables or passages of the source.

Experiment [1] addresses T1, S1 subunit of the SARS-CoV-2 spike protein, WA01/2020 strain (SARS-CoV-2, WA01/2020 strain, UniProt P0DTC2 16-685). The experiment can be described thus: dose-response ELISA; antigen taken from the column 'Structural data'. (In general: In an ELISA, binding on a coated surface is turned into a signal by an enzyme label.)
Experiment [2] has as its target T1, S1 subunit of the SARS-CoV-2 spike ….
Experiment [3] has as its target T2, SARS-CoV-2 nucleocapsid (N) protein (SARS-CoV-2, UniProt P0DTC9 1-419). The experiment can be described thus: ELISA, antibody at 0.1 ug/mL.
The target in experiment [4] is T1, S1 subunit of the SARS-CoV-2 spike …. The experiment can be described thus: ELISA, antibody at 0.1 ug/mL.
Experiment [5] has as its target T3, S2 subunit of the SARS-CoV-2 spike protein, WA01/2020 strain (SARS-CoV-2, WA01/2020 strain, UniProt P0DTC2 686-1213). Briefly: ELISA, antibody at 0.1 ug/mL.
Experiment [6] deals with T4, SARS-CoV-2 spike (S) protein trimer, WA01/2020 strain (SARS-CoV-2, WA01/2020 strain, UniProt P0DTC2 16-1213). The experiment can be described thus: dose-response ELISA; antigen taken from the column 'Structural data'.
Experiment [7] addresses T4, SARS-CoV-2 spike (S) protein trimer, ….
Experiment [8] concerns the target SARS-CoV (2003) spike protein borne on lentiviral pseudovirus (SARS-CoV (2003), UniProt P59594 14-1255). The experiment can be described thus: cell-based or functional assay.
For experiment [9], the target named is SARS-CoV-2 spike protein, WA1/2020, borne on lentiviral pseudovirus (SARS-CoV-2, WA01/2020 strain, UniProt P0DTC2 14-1273). The experiment can be described thus: cell-based or functional assay.
The target of experiment [10] is T5, MERS-COV (S2).
T5 chain: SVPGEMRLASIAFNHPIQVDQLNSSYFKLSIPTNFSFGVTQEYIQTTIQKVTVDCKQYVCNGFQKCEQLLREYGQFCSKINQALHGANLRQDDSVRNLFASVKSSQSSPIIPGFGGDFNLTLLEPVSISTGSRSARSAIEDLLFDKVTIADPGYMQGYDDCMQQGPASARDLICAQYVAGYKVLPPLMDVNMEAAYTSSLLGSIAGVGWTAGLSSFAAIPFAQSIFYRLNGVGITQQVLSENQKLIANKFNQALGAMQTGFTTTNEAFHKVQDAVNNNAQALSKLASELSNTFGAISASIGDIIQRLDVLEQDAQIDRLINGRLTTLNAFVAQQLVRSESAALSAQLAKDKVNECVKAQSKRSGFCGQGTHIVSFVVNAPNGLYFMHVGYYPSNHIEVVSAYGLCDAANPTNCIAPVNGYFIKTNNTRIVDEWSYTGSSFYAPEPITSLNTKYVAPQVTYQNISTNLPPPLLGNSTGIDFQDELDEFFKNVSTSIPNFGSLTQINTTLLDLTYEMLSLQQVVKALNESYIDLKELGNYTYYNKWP
Briefly: dose-response ELISA on coated spike antigen.

Experiment [11] concerns the target T6, MERS-COV (S1+S2).
T6 chain: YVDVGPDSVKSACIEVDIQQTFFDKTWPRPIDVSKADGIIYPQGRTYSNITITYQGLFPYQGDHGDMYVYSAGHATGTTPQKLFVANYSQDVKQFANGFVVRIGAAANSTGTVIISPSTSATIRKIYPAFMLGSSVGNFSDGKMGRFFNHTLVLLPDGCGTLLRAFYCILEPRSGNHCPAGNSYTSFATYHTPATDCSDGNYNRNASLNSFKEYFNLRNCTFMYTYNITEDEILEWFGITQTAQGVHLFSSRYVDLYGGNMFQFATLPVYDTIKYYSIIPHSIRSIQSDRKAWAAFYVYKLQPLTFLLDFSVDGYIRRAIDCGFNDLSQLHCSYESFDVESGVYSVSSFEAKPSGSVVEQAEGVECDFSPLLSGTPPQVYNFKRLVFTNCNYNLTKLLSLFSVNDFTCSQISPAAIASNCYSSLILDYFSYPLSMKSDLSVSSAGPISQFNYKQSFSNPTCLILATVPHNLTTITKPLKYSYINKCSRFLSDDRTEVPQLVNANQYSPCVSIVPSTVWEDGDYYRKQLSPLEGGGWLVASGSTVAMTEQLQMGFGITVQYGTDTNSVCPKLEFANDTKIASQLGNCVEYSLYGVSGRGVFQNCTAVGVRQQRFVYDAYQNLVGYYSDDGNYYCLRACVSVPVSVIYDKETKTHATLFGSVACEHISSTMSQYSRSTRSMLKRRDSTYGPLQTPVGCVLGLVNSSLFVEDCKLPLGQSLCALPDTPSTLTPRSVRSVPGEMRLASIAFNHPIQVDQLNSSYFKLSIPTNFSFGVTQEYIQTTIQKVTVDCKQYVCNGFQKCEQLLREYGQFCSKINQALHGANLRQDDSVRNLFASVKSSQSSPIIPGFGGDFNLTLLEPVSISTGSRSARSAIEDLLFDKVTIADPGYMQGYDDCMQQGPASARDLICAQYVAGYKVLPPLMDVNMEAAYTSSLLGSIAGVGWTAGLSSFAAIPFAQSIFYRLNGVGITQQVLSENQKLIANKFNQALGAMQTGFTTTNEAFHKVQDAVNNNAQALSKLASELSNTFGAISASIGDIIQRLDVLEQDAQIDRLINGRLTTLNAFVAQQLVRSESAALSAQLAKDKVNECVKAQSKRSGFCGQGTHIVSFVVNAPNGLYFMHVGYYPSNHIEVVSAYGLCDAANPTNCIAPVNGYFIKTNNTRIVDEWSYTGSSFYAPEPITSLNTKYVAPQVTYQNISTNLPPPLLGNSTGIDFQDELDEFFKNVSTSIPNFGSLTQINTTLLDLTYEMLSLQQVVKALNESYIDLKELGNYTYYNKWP
Briefly: dose-response ELISA on coated spike antigen.

Experiment [12] deals with T3, S2 subunit of the SARS-CoV-2 spike …. The experiment can be described thus: dose-response ELISA; antigen taken from the column 'Structural data'.
Experiment [13] has as its target T2, SARS-CoV-2 nucleocapsid (N) protein. The experiment can be described thus: ELISA screening, antibody concentration not given.
The target of experiment [14] is T1, S1 subunit of the SARS-CoV-2 spike …. The experiment can be described thus: ELISA screening, antibody concentration not given.
Experiment [15] deals with T3, S2 subunit of the SARS-CoV-2 spike …. Briefly: ELISA on S2 (S2 Binding EC50).
Experiment [16] has as its target T5, MERS-COV (S2). The experiment can be described thus: dose-response ELISA on coated spike antigen.
Experiment [17] concerns the target T6, MERS-COV (S1+S2). Briefly: dose-response ELISA on coated spike antigen.

As a reminder, the EC50 is the concentration at which the effect is half-maximal. High values mean a less potent agent, low ones a more potent agent. As usually defined, the Kd is the concentration at which binding is half-saturated.

B1: antibody 2080 (antibody, V domains shown)
VH: QVQLQQWGAGLLKPSETLSLTCAVYGGSFSGYYWSWIRQPPGKGLEWIGRINDIGSTDYNPSLKSRVTISVDTSKNQFSLKLTSVTAADTAVYYCAREPFDSEGTFDYWGQGTLVIVSS
VL: DIQMTQPPSTLSASVGDRVTITCRASQSISRWLAWYRQKPGKAPKLLIYDASSLQSGVPSRFSGSGSGTEFTLTISSLQPDDLATYYCQQYNTYPYTFGQGTKLEIK
Take B1: the EC50 in experiment [1] was determined as 0.025 nM. Also, the affinity in experiment [2], expressed as Kd, was 0.69 nM.

B2: antibody 2024 (antibody, V domains shown)
VH: QVQLVQSGAEVKKPGASVKVSCKVSGYTLIELSMHWVRQAPGKGLEWMGGFDPEEGETIYAQKFQGRVTMTEDTSTDTAYMELSSLRSEDTAVYYCTTSPPVGATGAWFDPWGQGTLVTVSA
VL: SYVLTQPPSVSVAPGKTARITCGGNNIGSKSVHWYQQKPGQAPVLVVYDDSDRPSGIPERFSGSNSGNTATLTISGLQAEDEADYYCSSYTSSSTVVFGGGTKLTVL
Turning to B2, the binding result in experiment [3], in experiment [4] and in [5] was “no binding (tested: 0.1 ug/mL)” in each case. The EC50 in [6] amounted to 1.15 nM. Besides, the Kd in experiment [7] was 15.6 nM.

B3: antibody 1872 (antibody, V domains shown)
VH: EVQLVESGGGLVKPGGSLRLSCAASGFSFSLYTMNWVRQAPGKGLEWVSYISSSSSYRYYADSVKGRFSVSRDNAKNALYLQMNGLRAEDTAVYYCARDGYCPRGVCTYYGMDVWGQGTTVTVSA
VL: EIVMTQSPATLSVSPGERATLSCRASQSVGSRLAWYQQKPGQAPRLLIYDATIRATGIPARFSGSGSGTDFTLTISGLQSEDFAVYYCQRYNNWPPAYTFGQGTKLEIK
For the molecule B3, in experiment [8], the “Pseudo Neut, SARS-CoV 2003 IC50” value came to 27 nM. Moreover, the “Pseudo Neut, WA1/2020 IC50 (pM)” value in experiment [9] is 133 pM. Further, the binding result is given as “no binding (tested: 10000 ng/ml)” in experiment [10], “no binding (tested: 10000 ng/ml)” in experiment [11], “no binding (tested: not printed)” in [13] and “no binding (tested: not printed)” in experiment [14]. Also, the EC50 in experiment [12] and in [15] was 0.071 nM in each case.

B4: antibody 1859 (antibody, V domains shown)
VH: B3 VH with S30N, L31T, R58K, A61S, N77K, A78S, R104N, A125L
VL: B3 VL with G30S, R32N, D50G, T52S, I53T, D70E, Y87F, R90Q, N92S, N93K
With B4, in experiment [8], the “Pseudo Neut, SARS-CoV 2003 IC50” value came to 115 nM. For the same molecule, the “Pseudo Neut, WA1/2020 IC50 (pM)” value in [9] stood at 889 pM. In addition, the EC50 in [12] and in experiment [15] was 1.22 nM in each case. Further, the binding result is listed as “no binding (tested: not printed)” in experiment [13], “no binding (tested: not printed)” in [14], “no binding (tested: 10000 ng/ml)” in experiment [16] and “no binding (tested: 10000 ng/ml)” in experiment [17].
